Data from IntAct's records for PubMed 36833176.

Biological target: csk21_human CSNK2A1 (UniProt P68400)
Sequence (P68400 whole entry, looked up): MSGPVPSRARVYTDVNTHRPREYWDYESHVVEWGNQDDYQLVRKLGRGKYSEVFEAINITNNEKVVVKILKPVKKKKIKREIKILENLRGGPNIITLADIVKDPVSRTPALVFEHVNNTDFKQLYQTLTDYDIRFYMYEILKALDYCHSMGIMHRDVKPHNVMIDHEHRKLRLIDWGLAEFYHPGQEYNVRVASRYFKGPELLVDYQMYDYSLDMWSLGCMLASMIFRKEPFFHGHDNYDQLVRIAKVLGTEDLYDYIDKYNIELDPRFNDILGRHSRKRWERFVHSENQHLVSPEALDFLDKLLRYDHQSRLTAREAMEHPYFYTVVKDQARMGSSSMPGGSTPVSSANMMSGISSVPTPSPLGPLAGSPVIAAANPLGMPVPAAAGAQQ

Sequence of Casein kinase II subunit beta (Homo sapiens), P67870 L39R (P67870 whole entry L39R): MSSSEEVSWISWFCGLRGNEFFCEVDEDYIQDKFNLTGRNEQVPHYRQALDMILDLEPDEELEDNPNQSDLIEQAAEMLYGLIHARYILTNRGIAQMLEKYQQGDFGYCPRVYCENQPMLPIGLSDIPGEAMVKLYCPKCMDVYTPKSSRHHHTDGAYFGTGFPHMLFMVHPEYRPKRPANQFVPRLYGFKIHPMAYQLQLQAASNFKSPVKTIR

effect of a mutation on the interaction: decreasing interaction strength
Substance: Casein kinase II subunit beta (Homo sapiens), P67870 L39R
